Earlier results on one substance are cited in paper PMC11759867.

The target in this series is MD2 (Homo sapiens) (UniProt Q9Y6Y9).
Sequence of UniProt Q9Y6Y9 (Q9Y6Y9 19-160): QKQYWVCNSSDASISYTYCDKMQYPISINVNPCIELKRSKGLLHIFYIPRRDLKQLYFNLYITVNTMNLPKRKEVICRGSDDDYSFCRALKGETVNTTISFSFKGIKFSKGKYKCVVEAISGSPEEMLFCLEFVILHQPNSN

By Kd is commonly meant the equilibrium constant for the complex coming apart. As for CIRP 106-125 (from UniProt Q14011), the Kd was 302 nM.
